Test results published in paper PMC8495130, “Synthesis of L-asparagine Catalyzed by a Novel Asparagine Synthase Coupled With an ATP Regeneration System” (Frontiers in Bioengineering and Biotechnology, 2021).

Legend:
purified protein [1] = substrate: N; test: purified protein; conditions: standard assay: L-Asp, ATP, Mg2+, Tris-HCl pH 8.0, 37°C, purification state of the kinetic sample not stated
purified protein [2] = substrate: N[C@@H](CC(=O)O)C(=O)O; test: purified protein; conditions: standard assay: NH4Cl, ATP, Mg2+, Tris-HCl pH 8.0, 37°C, purification state of the kinetic sample not stated
[3] = substrate: Nc1ncnc2c1ncn2[C@@H]1O[C@H](COP(=O)(O)OP(=O)(O)OP(=O)(O)O)[C@@H](O)[C@H]1O; test: HPLC of L-Asn after OPA derivatization; double reciprocal plot; type: biochemical, Ligilactobacillus salivarius; conditions: standard assay: L-Asp, NH4Cl, Mg2+, Tris-HCl pH 8.0, 37°C, purification state of the kinetic sample not stated
Source text: HPLC of L-Asn after OPA derivatization; double reciprocal plot on LsaAS-A

B1: LsaAS-A (Ligilactobacillus salivarius UCC118) (protein)
chain: MDLIIPKDYDPKLSIRETQEAIRYIRETFQDEFGKEMGLNRVSAPMYVEKSSGINDNLNGYEKPVSFTMKDMPGETIEVVHSLAKWKRMALKKYGFGLHEGLYTNMNAIRKDEDLDNFHSSYVDQWDWEKVISKDERNEKTLKETVELIFKVVKHMEHEVWYKFPNAVYHLPDKIHFITSQELEDKYPELEDAKDRENAICKELGCVFVMQIGDVLKSGKRHDGRAPDYDDWKLNGDILFWYEPLQCALELSSMGIRVDEDSMVEQLKKTGDEDRLKLQYHKMILNKELPYTIGGGIGQSRLCMLLLGKAHVGEVQASIWPDEMLKKCEENGIHIL
notes: full-length asnA product (~40 kDa) from plasmid pMA5, expressed in Bacillus subtilis WB600; Ni-NTA purification described in methods
Protein B1 has a Km (purified protein [1]) of 6500 µM, a Km (purified protein [2]) of 780 µM and a Km [3] of 2240 µM.
